In patent US20150201588A1:

Assays:
human CD20 (human) [1] = target: human CD20 (human) (UniProt P11836); test: QIFIKIT-based quantitative flow cytometry on Cyno iPS-EPI-1504-3_Gluc/CD20 (exogenous CD20)
human CD20 (human) [2] = target: human CD20 (human) (UniProt P11836); test: QIFIKIT-based quantitative flow cytometry on Cyno iPS-EPI-1509-1_Gluc/CD20 (exogenous CD20)
human CD20 (human) [3] = target: human CD20 (human) (UniProt P11836); test: QIFIKIT-based quantitative flow cytometry on Cyno iPS-EPI-1504-1_Gluc/CD20 (exogenous CD20)
human CD20 (human) [4] = target: human CD20 (human) (UniProt P11836); test: QIFIKIT-based quantitative flow cytometry on Daudi cells (human Burkitt's lymphoma line, endogenous CD20)

Sequence of UniProt P11836 (P11836 whole entry): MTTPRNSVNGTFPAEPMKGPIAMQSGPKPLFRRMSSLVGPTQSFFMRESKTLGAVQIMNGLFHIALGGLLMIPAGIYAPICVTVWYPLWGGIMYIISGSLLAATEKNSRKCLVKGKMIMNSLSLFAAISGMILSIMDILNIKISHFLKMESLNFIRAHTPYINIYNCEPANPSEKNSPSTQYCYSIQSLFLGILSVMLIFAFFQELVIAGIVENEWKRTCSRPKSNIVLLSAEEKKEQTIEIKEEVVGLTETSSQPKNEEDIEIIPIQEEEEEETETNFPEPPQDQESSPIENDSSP

Substance: anti-CD20-FITC (clone 2H7) (antibody)
- CD20 Surface Expression (Copies/Cell) (human CD20 (human) [1]): 1.22e+06 Copies/Cell
- CD20 Surface Expression (Copies/Cell) (human CD20 (human) [2]): 1.48e+06 Copies/Cell
- CD20 Surface Expression (Copies/Cell) (human CD20 (human) [3]): 1.38e+06 Copies/Cell
- CD20 Surface Expression (Copies/Cell) (human CD20 (human) [4]): 388000 Copies/Cell
